One test concerns the target T1, mouse Galectin-3 (mouse, UniProt P16110 2-264, limits assumed).
T1 construct: also called mLGALS3; mouse LGALS3
Nature of the test: ELISA screening (Table 1, antigen target). A general note: In an ELISA, binding on a coated surface is turned into a signal by an enzyme label.

For a further test, the target named is T2, human Galectin-3 (human, UniProt P17931 1-250).
T2 construct: In the laminin assay it was biotin-labelled; also called LGALS3; Gal3
The test can be described thus: SPR, antibody captured on anti-mouse Fc surface, 8-pt 2-fold dilution series of LGALS3 from 500 nM. On the procedure:
SPR: Antibody binding to LGALS3 was confirmed by surface plasmon resonance (SPR) assay. The antibody was captured on an anti-mouse Fc surface and an 8-pt. 2-fold dilution series of LGALS3 was flown over the antibody starting at 500 nM.
On the technique in general: In SPR one partner is held on a chip, and binding of the other changes the refractive index at the surface.

T2 sequence (P17931 whole entry): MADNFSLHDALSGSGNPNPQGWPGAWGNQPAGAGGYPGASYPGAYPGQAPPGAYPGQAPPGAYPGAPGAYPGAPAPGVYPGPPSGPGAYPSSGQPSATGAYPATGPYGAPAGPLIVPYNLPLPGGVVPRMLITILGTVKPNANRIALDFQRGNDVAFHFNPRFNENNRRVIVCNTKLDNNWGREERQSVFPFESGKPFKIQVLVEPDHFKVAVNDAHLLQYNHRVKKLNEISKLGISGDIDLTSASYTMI
T1 sequence (P16110 2-264 limits assumed): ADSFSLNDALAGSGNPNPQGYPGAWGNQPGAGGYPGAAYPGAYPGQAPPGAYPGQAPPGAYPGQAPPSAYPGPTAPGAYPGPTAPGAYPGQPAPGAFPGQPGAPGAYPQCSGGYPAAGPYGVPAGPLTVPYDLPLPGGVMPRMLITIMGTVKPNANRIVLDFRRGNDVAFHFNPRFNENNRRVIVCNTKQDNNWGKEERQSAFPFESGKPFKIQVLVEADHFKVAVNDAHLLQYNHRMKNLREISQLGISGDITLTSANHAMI

B1: 112516.14D11.2D2 (antibody, V domains shown)
VH: QVQLKESGPGLVAPSQSLSITCTISGFSLSSYGVHWVRQPPGKGLEWLVVIWSDGSTTYNSTLKSRLSISKDNSKSQVFLKMNSLQTDDTAMYYCARHISNYGTMDYWGQGTSVTVS
VL: DIQMTQTTSSLSASLGDRVTISCRASQDIRNYLNWYQQKPDGSIKLLIYYTSRLHSGVPSRFSGSGSGTDYSLTIRNLEQEDIATYFCQHFNTLPPTFGGGTKLEIK
As a reminder, the Kd is the constant that tells how readily two partners part at equilibrium. Lower therefore signals tighter binding. B1: the binding result in the test with mouse Galectin-3 is reported as “binds”. In the test with human Galectin-3, this molecule yielded a Kd of 14.6 nM.
